Measured values reported in patent US20170327561A1, “Anti-Angiogenic Properties of Collagen V Derived Fragments” (Ecole Normale Superieure de Lyon, priority 2014, published 2017).
Entries after “also recorded” stand apart in the source; their conditions may differ.

Tests used:
[1] = system: human dermal microvascular endothelial cells (HDMEC); test: Quantitative real-time RT-PCR of collagen genes in HEPV-treated endothelial cells; assay type: cell-based; conditions: HDMEC treated with HEPV for 4, 12 and 24 hours; relative to untreated controls, normalized to L30
Procedure: Expression of COL14A1 and COL18A1 mRNA in human dermal microvascular endothelial cells (HDMEC) treated with HEPV for 4, 12 and 24 hours, analyzed by real-time PCR. Values are normalized to the house keeping gene L30. Quantification is expressed relative to controls (cells cultivated in the same conditions without HEPV). Values are mean±SEM (n=3).
Total RNA was isolated from 8×10^6 cells by phenol-chloroform-isopropanol extraction (Trizol Reagent, Invitrogen). A reverse transcriptase reaction was performed on 1 μg of RNA using M-MLV reverse transcriptase (Promega). Quantitative PCRs were performed using SYBR Green Supermix (Biorad) and specific primers using a I-Cycler Optical System (Biorad). The following primers were used: […]
L30 was selected as housekeeping gene and used for normalization. Relative transcript abundances were determined as well known by the person skilled in the art. Relative gene expression was determined using the 2^−ΔΔC^T method. Student's t-tests were used to determine statistical significance (n=4).
A transcriptomic analysis has been performed, in order to identify the HEPV-regulated genes. Endothelial HDMEC cells have been treated with HEPV or not, for 4, 12 and 24 hours.

[2] = system: FGF-2-induced ERK1/2 and Akt phosphorylation in HUVEC; test: Phosphorylation assay (Western blot) after FGF-2 stimulation; assay type: cell-based; conditions: peptide 8 μg/mL 24 h, FGF-2 50 ng/mL
Procedure: (§1) HUVEC were seeded at 2.10^5 cells/wells in ECGM2 in 6-well plates. The cells were treated with HEPV or ΔHBS-HEPV (8 μg/mL) during 24 h in serum free medium and then stimulated with FGF-2 or VEGF (50 ng/mL) for 5 or 20 minutes at 37° C. Cells were then washed twice with cold PBS and scraped and lysed at 4° C. in lysis buffer 1% NP-40 (150 mM NaCl, 50 mM Hepes pH 7.4, 5 mM EDTA, 10% glycerol, 1% NP-40, complete protease inhibitor cocktail (Roche), 1 mM Na3VO4). After centrifugation (13 000 g, 15 min, 4° C.), soluble proteins were collected. Protein amount was determined by BCA protein assay (Pierce) and equal amounts of proteins (10 μg) were loaded on SDS-PAGE and transfer on PVDF membrane at 100 V during 1 h. The blots were blocked with 5% BSA in TBS-T buffer (20 αmM Tris-HCl pH 7.4 and 0.05% Tween 20) and incubated with primary antibodies in TBST containing 5% bovine serum albumin, overnight at 4° C. Immunoreactivity was detected by sequential incubation with horseradish peroxidase-conjugated secondary antibodies purchased and ECL detection reagents purchased from Biorad. The antibodies used for phospho-protein detection were the followings: anti-AKT, anti-phospho-Akt (Ser473), anti-ERK1/2 and anti-phospho-ERK1/2 (Thr202/Tyr204, Thr185/Tyr187) (all from Cell Signaling Technology).
(§2) The aim of the experiments presented in FIG. 4 was to determine if, after incubation of endothelial cells with the peptide HEPV, the response to FGF-2 was affected by the presence of this peptide. The measured response to FGF-2 is the level of phosphorylation of proteins ERK 1/2 and Akt, involved in the signalization pathway of FGF-2 and VEGF, as determined with specific antibodies.
Endothelial cells HUVEC have been treated during 24 hours with HEPV or the control peptide ΔHBS-HEPV, and have then been stimulated with FGF-2 (FIG. 4A) or VEGF (50 ng/ml) (FIG. 4B).

[3] = system: murine TS/Apc breast cancer cells implanted subcutaneously; test: Antitumor activity, tumor growth by caliper; assay type: in vivo, nude mice; conditions: 50 μg peptide every 2 days, versus HEPV-ΔHBS control; from day 20 of treatment
Procedure: (A) Murine Tsa/Pc breast cancer cells implanted subcutaneously are treated from day 5 repeatedly by peritumoral injections of 50 μl PBS containing 50 μg control (HEPV-ΔHBS) of HEPV peptides every 2 days. […] Tumors sections were immunostained using an anti-CD31 antibody that detects blood vessels (B) or an anti-Ki67 antibody that stains proliferating cells (C).
TS/Apc-pGL3 is a cell line derived from the original adenocarcinoma TS/Apc mouse cell line stably transfected with the pGL3-luciferase reporter gene (Promega, Charbonnieres, France). Cells were cultured at 37° C. in a humidified 5% CO2 incubator in RPMI 1640 supplemented with 1% glutamine, 10% fetal bovine serum, 50 units/ml penicillin, 50 μg/ml streptomycin, β-mercaptoethanol (25 μM) and 700 μg/ml Geneticin® (G418 sulphate; Gibco, Paisley, UK).
Twenty female athymic Swiss nude mice, purchased from Janvier (Le Genest Saint Isle, France) at 6-8 weeks of age were used and maintained under specific pathogen-free conditions. Mice received a subcutaneous (s.c.) injection of 10^6 TS/Apc-pGL3 cells suspended in 200 μl of PBS into the right flank usually results in formation of 6-8 mm-diameter tumors after one week. […] Tumor growth was evaluated using calipers.
Tumors have been induced by implantation of murine breast cancer cells (TSA) in nude mice. […] The volume of the tumors is measured with a caliper.

[4] = system: FGF-2 induced angiogenesis; test: Hemoglobin measurement in implanted FGF-2 sponges; assay type: in vivo, nude mice; conditions: 20 μg peptide first day then every two days, after 7 days of treatment
Description: (B) Formation of new blood vessels in nude mice implanted with a sponge impregnated with FGF-2 or PBS. After repeated treatments with peptides HEPV or HEPV-ΔHBS, the sponges are extracted and the presence of hemoglobin quantified. The presence of hemoglobin reflects the blood vessels content, as documented by the photos.
Disc Cellspon cellulose sponges (thickness 2 mm, diameter 10 mm; Cellomeda, Turku, Finland) were implanted under the skin of the mice. Prior to implantation, the sponges were hydrated with 50 μl of either PBS (negative control) or FGF-2 (200 ng/50 μl; positive angiogenic control) (recombinant FGF-2, Eurobio-AbCys, Les Ulis, France). […]
After implantation of the PBS or FGF-2 treated sponges and treatment with 50 μl containing 50 μg HEP peptides at DO, 2, 3 and 5, the hemoglobin content was measured at D8. […] Each sponge was homogenized in 1 ml of RIPA lysis buffer containing a cocktail of protease inhibitors, centrifuged at 200 g, and the supernatants were quantified. The extent of vascularization of the sponge implants was assessed by measuring the concentration of hemoglobin with Drabkin's reagent (Sigma-Aldrich, Saint-Quentin Fallavier, France). […]
20 μg of HEPV or ΔHBS-HEPV have been injected simultaneously with PBS or FGF-2, at the first day and then every two days. After 7 days of treatment, sponges are taken out and analyzed. […]

[5] = system: VEGF-induced ERK1/2 phosphorylation in HUVEC; test: Phosphorylation assay (Western blot) after VEGF stimulation; assay type: cell-based; conditions: peptide 8 μg/mL 24 h, VEGF 50 ng/ml
Procedure: as §1, with “The blots were blocked with 5% BSA in TBS-T buffer (20 αmM Tris-HCl pH 7.4 and 0.05% Tween 20) and incubated with primary antibodies in TBST containing 5% bovine serum albumin, overnight at 4° C.” left out, “The antibodies used for phospho-protein detection were the followings: anti-AKT, anti-phospho-Akt (Ser473), anti-ERK1/2 and anti-phospho-ERK1/2 (Thr202/Tyr204, Thr185/Tyr187) (all from Cell Signaling Technology).” left out
as §2, with “antibodies. […]” for “antibodies.”

[6] = Organ distribution of the peptide after injection into the blood system; assay type: in vivo; conditions: mouse
[7] = system: murine TS/Apc breast cancer tumors; test: Immunohistology of tumor sections (anti-CD31, anti-Ki67); assay type: in vivo, nude mice
Procedure: At day 20, 3 mice/group were sacrificed for immunohistology studies. At day 35 days after implantation all remaining tumors were extracted.
Frozen sections (8 μm) from tumors were fixed in acetone for 10 min. Sections were then washed 3×5 min in Tris-buffered saline containing 0.1% Tween 20, and endogenous peroxidases were blocked with 0.1% H2O2 in methanol for 20 min. Sections were then sequentially incubated for 1 h with a rat monoclonal anti-CD31 antibody (MEC13.3;1:500; Pharmingen) or rabbit anti-Ki67 (1:100; AbCAM) and for 1 h with goat anti-rat antibody for CD31 (1:500; Cell-signaling) or goat anti-rabbit for Ki67 (1:200; Dako). […] Sections were counterstained with hematoxylin and all were mounted.
Staining against the endothelial marker CD31 by means of immunohistochemistry was followed by observation under low magnification scope (100×), five field of view of each tumor (5 tumors by condition). Then, vessels quantity were measured in each of these areas utilizing ImageJ software (http://rsbweb.nih.gov/ij). All counts were performed in a blinded manner.
After immunohistochemical staining against Ki67, slides were observed under high magnification scope (200×). Six to nine areas by tumor were photographed. These photographs were analyzed by the plugging ImmunoRatio in ImageJ software (http://rsbweb.nih.gov/ij). The Ki67 index was evaluated in a blinded manner and calculated as Ki67-positive cells divided by all tumor cells in one field.
Mice from each group are sacrificed at day 20 and day 33 to check the formation of novel blood vessels. The account of the blood vessels is realized by observations of the tumors samples.
The proliferation of tumor cells with an antibody anti-Ki67 is also realized on these tumor samples.

[8] = Heparin-Sepharose affinity chromatography (NaCl gradient elution); assay type: binding; conditions: linear NaCl gradient 0-500 mM, Tris-HCl pH 7.4
Procedure: Heparin-Sepharose affinity columns (HiTrap Heparin, Amersham) were equilibrated in 50 mM Tris-HCl (pH 7.4). Protein samples were loaded onto a column, and a programmed linear gradient of 0-500 mM NaCl, 1M Tris-HCl (pH 7.4) was applied at a flow rate of 0.5 ml/min, confirmed by continuous conductivity measurement. Fractions (1 ml) were collected, and the elution profile of protein samples was determined by monitoring the absorbance at 214 nm. To accurately compare elution positions of the mutant, its elution with NaCl gradient was achieved versus a standard HEPV elution.
The affinity of both peptides for heparin is compared, on a heparin-sepharose column, determined with the necessary quantity of NaCl to elute the peptides.

| Molecule | Expression of COL4A1 mRNA [1] | Expression of COL18A1 mRNA [1] | Phosphorylation of Akt after stimulation with FGF-2 [2] | Phosphorylation of ERK1/2 after stimulation with FGF-2 [2] | Tumor growth (tumor volume) [3] | Decrease of hemoglobin level in sponges, in comparison with mice treated with ΔHBS-HEPV [4] [times] | Phosphorylation of ERK1/2 after stimulation with VEGF [5] | Toxicity (concluded from absence of liver accumulation) [6] | Accumulation in various organs ([6]; results not shown) | Accumulation into the liver ([6]; results not shown) | Blood vessels density in tumors (anti-CD31), compared to ΔHBS-HEPV-treated mice ([7]; day 20) | Tumor cells proliferation (anti-Ki67) ([7]; day 20) | Blood vessels density in tumors (anti-CD31), compared to ΔHBS-HEPV-treated mice ([7]; day 33) | Tumor cells proliferation (anti-Ki67) ([7]; day 33) | NaCl concentration needed to elute the peptide from heparin-sepharose [8] [M] |
| --- | --- | --- | --- | --- | --- | --- | --- | --- | --- | --- | --- | --- | --- | --- | --- |
| HEPV: 12 kDa recombinant fragment of the collagen V pro-α1 chain, residues Ile824 to Pro950, SEQ ID NO. 1, binds heparin (protein, listed as Homo sapiens, HEPV) IKGDRGEIGPPGPRGEDGPEGPKGRGGPNGDPGPLGPPGEKGKLGVPGLPGYPGRQGPKGSIGFPGFPGANGEKGGRGTPGKPGPRGQRGPTGPRGERGPRGITGKPGPKGNSGGDGPAGPPGERGP | up-regulated | up-regulated | inhibits | inhibited | slows down; also recorded: significantly (p<0.05) slowed down | 2.5 | present a phosphorylation of ERK1/2 | non-toxic | does not accumulate non-specifically in various organs, except in kidney and bladder | does not accumulate into the liver | significant decrease | significant decrease | less significant | the proliferation strikes back | 0.35 |
| ΔHBS-HEPV: non-functional HEPV mutant, SEQ ID NO. 4, Lys905, Arg909 and Arg912 replaced with alanines; negative control (protein, Synthetic Mutant of HEPV, 4, Lys905, Arg909 and Arg912 replaced with alanines; negative control) IKGDRGEIGPPGPRGEDGPEGPKGRGGPNGDPGPLGPPGEKGKLGVPGLPGYPGRQGPKGSIGFPGFPGANGEKGGRGTPGAPGPAGQAGPTGPRGERGPRGITGKPGPKGNSGGDGPAGPPGERGP |  |  |  | inefficient |  |  |  |  |  |  |  |  |  |  | 0.2 |
